Test: soluble on expression in E. coli; label from the status in PepcDB or PDB records

Sequence | soluble on expression in E. coli
MSLKFFPTRTLLCLCIAAPCLPAIAQNDPIELPDIGTVAGSTLTIDQELIYGDAYMRMLRNNQPVINDPVLNEYIDNLGHRLVASANDVKTPFTFFMIRDRNINAFAFFGGYVALHSGLFLHAQSESELASVMAHEIAHVTQRHLARSMEEQARRSPATIAALAGSLLLAIAAPEAGIAAINATMAGSIQGQINYTRSNEKEADRFGIATLAKAGFDANAMPQFFTRLADEYRYASKPPPMLLTHPLPEDRITDSRERARQYPPLKLAPHLDYHLARARIIARYAGIDADAALDWFARSEKKIDATLQPSIQYGKALVYLDLKQFDKAEPLLTQLVKEQPDNHFYLDAISDLYIELKQADKAQSLLEKALKQTPNNSVLTINYANVLLKQDKFTDAIRILQRYTHDNPNDINGWQLLSEANSRLGNSAEDLAARGEIMALQANWNKAIQFYTQASQLVELGSLAQARYDARIDQLMVQRERFLSLQEGGSHHHHHH | soluble
MSLKFMYSALLGNPVEHSISDELFEYLNHNIGVLDEYKHKKILVDSVCLEDKIKHLINDPKCIGLNITLPYKREVMRYIDNLDRVAEITGSVNNIYKSGNIITGTNTDWKGIYNTLVFFNISHITKCCVLGTGGTARAAIFALQKLQISPTVVYREPISENTRSLIKSFPDLKYITYKELADQQILNDMEIIINTTPVGMINYEESLPINFDHLDNVNYKDKYFMDVVFNPLHTKLHEYFGKKGAKIIDGLWVLIFQGIEAFSLWSDKINDGKYFFSEGHHHHHH | not soluble
MSLKGQNQHSVLRNFPVLGRIRYISEKIGPELRQYFFANDNEGKPFSRSDYKNIVLAGKYKSRMTSFGTGKDYLEGFYIQNTMFPLQATELHIDHTEFISTFLYHIENERLFSREEYRKSAQVDPFFLTDEHAVVLGSNLKHPFKIKRLVGQSGMSYGALGKNAITALSMGLAKAGTWMNTGEGGLSEYHLKGNGDIIYQIGPGLFGVRDHDGNFNRDMFINLAEHNNVRAFEIKLAQGAKTRGGHMEGNKVTEEIARIRNVKPYETINSPNRFDFIKNPTDLLNFVNHLQSIGQKPVGFKIVVSKVEEIEALVKTMIEIDTYPSFITVDGGEGGTGATFQELEDGVGLPLFTALPIVSSMLEKYGIRNKVKIFASGKLVTPDKIAIALGLGADLVNIARGMMISVGCIMSQQCHLNTCPVGVATTDPKKEKGLIVDEKQYRVTNYVTSLHEGLFNIAAAVGVHSPTEITSDHIIYRQLDGTTTSIQDYKLKLISEGHHHHHH | not soluble
MSLKHVAVYLRLSRGEDESELDNHKTRLLNRCELNNWSYELYKEIGSGSTIDDRPVMQKLLTDVEKNLYDAVLVVDLDRLSRGNGTDNDRILYSMKVSETLIVVESPYQVLDANNESDEEIILFKGFFARFEFKQINKRMREGKKLAQSRGQWVNSVTPYGYIVNKTTKKLTPSEEEAKVVIMIKDFFFEGKSTSDIAWELNKRKIKPRRATEWRSSSIANILQNEVYVGNIVYNKSVGNKKPSKSKTRVTTPYRRLPEEEWRRVYNAHQPLYSKEEFDRIKQYFECNVKSHKGSEVRTYALTGLCKTPDGKTMRVTQGKKGTDDDLYLFPKKNKHGDSSIYKGISYNVVYETLKEVILQVKDYLDSVLDQNENKDLVEELKEELMKKEDELETIQKAKNRIVQGFLIGLYDEQDSIELKVEKEKEIDEKEKEIEAIKMKIDNAKTVNNSIKKTKIERLLSDVQSAESEKEINRFYKTLIKEIIVDRTDENEAKIKVNFLEGHHHHHH | not soluble
MSLKHYDLIIIGTGSGNSIPGPEFDDKSIAIVEKGAFGGTCLNVGCIPTKMYVYAADIAQEIQESARLGIDATVNSVDWPSIVSRVFDKRIDLIAQGGEAYRRGPETPNIDVYDMHASFVDSKTISTGIAGQEQLISGTDIVIATGSRPYIPEAIAESGARYYTNEDIMRLAQQPESLVIVGGGFIALEFAHVFEALGTKVTILNRSDVLLREADADISAKILELSKKRFDVRLSTAVTAVHNKADGGVKISTDTGDDIEADILLVATGRTPNGNQMNLDAAGIEMNGRSIKVDEFGRTSVEGVWALGDVSSPYKLKHVANAEMRAIKHNLANPNDLQKMPHDFVPSAVFTNPQISQVGMTEQEAREAGLDITVKIQNYSDVAYGWAMEDKDGFVKLIADKDTGKLVGAHIIGAQASTLIQQLITVMAFGIDAREAATKQYWIHPALPEVIENALLGLEFEGHHHHHH | soluble
MSLKIGIDVGSTTAKLVAVDENDNLLFSKYERHNAKAKETILSFLKELLSEIGDKDISVRITGSIGMGISEKCSLPFVQEVVAAAKAIQKDYSHVTSMIDIGGEDAKVVFFNDAEATDLRMNGNCAGGTGAFIDQMAIILGVNIDELNQLAMNATQVYPIASRCGVFCKTDIQNLIAKNVSRENIAASIFRAVAVQTVVTLAHGCDITTPVLFCGGPLTFIPALRKAFIDYLSLDEKEIILPANGTLLPALGAALFHLDKEDYCKLSHLIDKEGHHHHHH | soluble
MSLKILMIMEEAEERRSLAEKFIENIKNVECFEASMGTEALFIMKKHTPDFVFLNSKLMDGTGFEYVNLLREVNCYAKFIFMGEDIEESITAFRFQAFYYLLRPFREEDLQFLLYRMGKEGHHHHHH | soluble
MSLKINVADFHGTYLENPRTVNNFSLTGTDQKVFDNSSLQGRWTLVFFGFTNCGYLCPTTMAELGKMYRILEKKGVKNLPQVVMISIDPQRDSLDKLGSYVTSFHKSFYGARGEEDSIKSMTHEMGIAYAKINSKESSEPENYDIQHSGAVMLFNPQGELNAFFTTPHHADLLAKDYVLLVSEGHHHHHH | soluble
MSLKITGFRSLTTVHRWGRPVGDANGFVAQGVTEVPVLLVETDGGLTGVGLGAHGDAERVFPALDGQDPRAVTTLYDRMLAHTFKSGHAGTAFGTIGAFDTALWDLKAKMAGEPLWRTLGAADRFVPGYASGLDIALDEEELVALYSGWAARGFTGAKLKGGLDTERDIGRLRAVAEVLRPNTRSPALMLDVNESWGRHQAVRLLARIEDRVELAWIEEPVRRWDARGHRAVGRAGRTAVASGENLTGLEQFRPLLAADALQVVQAAGVWGITHFLRVATLAHGHDLPVSPVGYHANPLAHAAAAVPNHLVTEVQDIGTPAGLTVDQAIEDGGIVLGDAPGLGITVDESALAAPRQNAGWARPDGPHVRPRDAGLRLVPEPGPPGPAARVRAGTPSLGVPGPVHRPARSEHTERENTPEGHHHHHH | not soluble
MSLKITKVEVIPISTPMKRAQLMRGATLARIDGVLLKLHSDEGLVGIADAGDTSSWYRGETQDSITSMICDFFAPKVLLGEDPTKIEKIVGRMDILTRDNNQAKATVDFALHDLVGKRFGVPVYQLLGGKTIERIPLGLVLGAGEPEAVAEEALAVLREGFHFVKLKAGGPLKADIAMVAEVRRAVGDDVDLFIDINGAWTYDQALTTIRALEKYNLSKIEQPLPAWDLDGMARLRGKVATPIYADESAQELHDLLAIINKGAADGLMIKTQKAGGLLKAQRWLTLARLANLPVICGCMVGSGLEASPAAHLLAANDWIAQFPQENAGPLHIHDCLNSRDIDNDIALNVPRFEGGYLYPNDGPGLGIELNEDLVRRLVTPGKAARVVTAEGHHHHHH | soluble
MSLKKENSVEFKVSGRYALFSDPINRIGGEKFSYQVPTYQALKGILESVYWKPTLIWIIDEVRVMNLIKTQSQNIRPVNFSGTSKGTGTPLNTLSIYTYLTNVEYQVKAHFEWNYNRPNLEKDRNENKHYIVAKRMINRGGRRDVFLGTRECQAYVEPCKFGEGEGAYDHYGSLSFGLMFHGFDYPDETGEDKLTARLWSPVMNNGYIKFLRPDECTIKRELSSMKPKVFDENNFSGLEEFEEEGDIIELDSEGHHHHHH | soluble
MSLKKFQHEFWTATSGDLTQRRTPLATPDYQSTSAAAVKIIIDPADRHQPWLGGGAAITDSAAYLLWSVMSAEQRRALLTELFDPDQGGFSSVRVPLGSCDFQSQDFYTYDDVPYGEHDQKLEQFSIGTGQPGAPDATKDLKHIVPVLQEILAINPAVKVIASPWSAPAWMKNTGHLTHGGHLRFGEFTGNGYTEENRFEYIYAQYFIRYIEAYQKLGIPIYGLTIQNEPSNAAHWPAMIWTVPQLADFGYRYLRPALNHSFPDTKLYLLDDSFHALTKPITAEVTPEQAAAFDGLAVHTYSGPYDNLYHANRAYPNWSTIMTERRCMMTDTPEEAAHIMFGIIGNWLVHNGLSMITLWNLALDERGLPNAADSTGREGVVTIDHTTGKVQRNLEYFMLRNFGQDVSVGATVIGSTNYTRDGYTGGLGSVAFLGTAGDIAAHLYNPTAQPIQAAVTINGNGANWQLVTVPPYGTVTLHKSDAPLNTTNVPVDDEFPLNPTPANHSDVAPGQHEGHHHHHH | not soluble
MSLKKILLLLANGFEAVEASVFTDVLGWNMLEGDGSTLVVTAGMHDKIKCTWNFTVLPEIKIKNVNVDDFEALVIPGGFEEAGFFIDAYSNSFLDLIRTFNAKGKIIASVCVGALSIGKSGILKGRTATTYNLNDRKRQYELSKFGVKILENQPIVIDKNVITSYNPSTAFNVAFTLLEMLTSTENCTKVKKLMGFIEGHHHHHH | soluble
MSLKKIWLGILISVCTLLGADMSLWQKSTLNEIIKRGELRVGLEPGYLPFEMKDKKGNVIGFDVDLAREMAKAMGVKLKLVPTSWDGLIPGLVTEKFDIIISGMTISQERNLRVNFVEPYIVVGQSLLVKKGLEKGVKSYKDLDKPELTLVTKFGVSAEYAAKRLFKNAKLKTYDTEAEAVQEVLNGKADMFIFDLPFNVAFMAQKGQGYLVHLDTSLTYEPLGWAIKKGDPDFLNWLNHFLAQIKHDGSYDELYERWFVDTKWLEKIQEGHHHHHH | soluble
MSLKKVVIIGGGAAGMSAASRVKRLKPEWDVKVFEATEWVSHAPCGIPYVVEGLSTPDKLMYYPPEVFIKKRGIDLHLNAEVIEVDTGYVRVRENGGEKSYEWDYLVFANGASPQVPAIEGVNLKGVFTADLPPDALAIREYMEKYKVENVVIIGGGYIGIEMAEAFAAQGKNVTMIVRGERVLRRSFDKEVTDILEEKLKKHVNLRLQEITMKIEGEERVEKVVTDAGEYKAELVILATGIKPNIELAKQLGVRIGETGAIWTNEKMQTSVENVYAAGDVAETRHVITGRRVWVPLAPAGNKMGYVAGSNIAGKELHFPGVLGTAVTKFMDVEIGKTGLTEMEALKEGYDVRTAFIKASTRPHYYPGGREIWLKGVVDNETNRLLGVQVVGSDILPRIDTAAAMLMAGFTTKDAFFTDLAYAPPFAPVWDPLIVLARVLKEGHHHHHH | soluble
MSLKLITNYQFLTYDGNYFHAEVIQSVLAECERAGIEIDTVLLDRDHQNDMEKFWDQIRSGAAEGVILVGVDMPPMLEVVRALGVPVVMVNGNDPNCQFDSVMPAFRDGSRIATRYLIEQGHRDIVHVTHLYRPLIRRRLDGFREALEEAGLPFSFERNVIDISSGHFSAEQAASVVAERIANGTLNATALFCVSDYTAFGVVQGILRSGKTVPGDYSVASFDDLPLAQLCRPALTSVGVDRRALGRIAVERLLSRLESVEGPTLRIEVGARLTIRDSTRPEGHHHHHH | soluble
MSLKLKEEERMTEMILEYKNQLCKQNKLIQEKKENVLKMIAEVKGKEQESEELTAKIQELKEEYARKRETISTANKANEERLKGLQKSADLYRDYLGLEIRKIHGNKLQFIFTSIDPKNPESPYMFSMSINEAKEYEVYDSSPHLECLAEFQEKVRKTNNFSAFLANIRKAFIAKVHN | not soluble
MSLKLVLHSAKRASAPYRVRIGLNLKGLAFELRPVDLVANAHQGEAYRALNAQALVPTLEVDGRPLTQSLAILEWLDETYPAHPLLPTDAFDRATVRAMAEIIACDIHPLNNLRILRQLTALEIDEPARNAWVARWIQDGFSALEPMIARHGQGYAFGDAPGLVDCLLVPQVFNANRFNVDLSPFPALEAAAAHARAHPAIAAAHPDHHPEEGHHHHHH | soluble

From the DeepSol protein solubility set
